In US20250011363A1, “OPTIMIZED SHORTENED PEPTIDE THAT BINDS TO ACETYLCHOLINE RECEPTOR, AND USE THEREOF” (SKINMED CO., LTD., priority 2021, published 2025):

These substances were tested against acetylcholine receptor (Homo sapiens, UniProt P02708) (assay: SPR binding affinity (RU) of optimized 5mer/6mer/7mer peptides, Examples 6-7). Details: SPR, Resonance Units; peptides tested at 10 μM; 6mer-2 Top sequence (Table 12).
Outline: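 Using surface plasmon resonance, binding to the acetylcholine receptor was measured for each sequence at a single 10 μM concentration. Values are response units.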

acetylcholine receptor, sequence (P02708 21-457): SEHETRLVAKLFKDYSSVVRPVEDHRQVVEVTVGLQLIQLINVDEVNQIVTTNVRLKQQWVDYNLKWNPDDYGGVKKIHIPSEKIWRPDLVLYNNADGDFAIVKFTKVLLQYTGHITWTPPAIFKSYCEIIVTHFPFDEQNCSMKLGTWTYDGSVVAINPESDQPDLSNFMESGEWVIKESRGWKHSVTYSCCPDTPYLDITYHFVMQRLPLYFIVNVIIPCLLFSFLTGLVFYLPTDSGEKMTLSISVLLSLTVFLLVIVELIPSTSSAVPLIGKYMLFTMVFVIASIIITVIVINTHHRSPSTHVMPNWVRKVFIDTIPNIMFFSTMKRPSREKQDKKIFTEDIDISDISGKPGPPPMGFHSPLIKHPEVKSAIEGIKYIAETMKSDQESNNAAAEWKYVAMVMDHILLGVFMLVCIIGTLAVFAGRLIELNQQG

| Substance | Binding affinity [Ru] |
| --- | --- |
| KWRQKR [6mer-2-233] | 190 |

Same assay, conditions: SPR, peptides at 10 μM

| Substance | Binding affinity (RU) |
| --- | --- |
| KWRQKR [6mer-2-233] | 190 |

Same assay, conditions: SPR, peptides at 10 μM; 6mer-2 Bottom sequence

| Substance | Binding affinity [Ru] |
| --- | --- |
| 6mer-2-1181 (KACWKR) | 32 |
| 6mer-2-1182 (RHNDKR) | 30 |
| 6mer-2-1183 (RENNRK) | 35 |
| 6mer-2-1184 (KFWVRR) | 22 |
| 6mer-2-1185 (RIDAKK) | 42 |
| 6mer-2-1186 (KEKFRR) | 27 |
| 6mer-2-1187 (RTADRK) | 36 |
| 6mer-2-1188 (RAPARR) | 22 |
| 6mer-2-1189 (KTAPKK) | 40 |
| 6mer-2-1190 (KACIRR) | 32 |
| 6mer-2-1191 (KKADRK) | 35 |
| 6mer-2-1192 (KHKNKR) | 40 |
| 6mer-2-1193 (REKIRR) | 43 |
| 6mer-2-1194 (KYCDRK) | 35 |
| 6mer-2-1195 (KMTERK) | 25 |
| 6mer-2-1196 (RESKKR) | 39 |
| 6mer-2-1197 (KNCIKK) | 23 |
| 6mer-2-1198 (RMSHRR) | 27 |
| 6mer-2-1199 (RCTNKR) | 27 |
| 6mer-2-1200 (RHHNRR) | 30 |

Same assay, conditions: SPR; XRRGVRR-7mer and RRGVRRX-7mer

| Substance | Binding affinity, values relative to the RRGVRR sequence |
| --- | --- |
| 3641 (GRRGVRR) [compound 3641] | 137 |
| 3642 (ARRGVRR) [compound 3642] | 134 |
| 3643 (VRRGVRR) [compound 3643] | 140 |
| 3644 (CRRGVRR) [compound 3644] | 128 |
| 3645 (PRRGVRR) [compound 3645] | 138 |
| 3646 (LRRGVRR) [compound 3646] | 149 |
| 3647 (IRRGVRR) [compound 3647] | 126 |
| 3648 (MRRGVRR) [compound 3648] | 124 |
| 3649 (WRRGVRR) [compound 3649] | 134 |
| 3650 (FRRGVRR) [compound 3650] | 139 |
| 3651 (SRRGVRR) [compound 3651] | 117 |
| 3652 (TRRGVRR) [compound 3652] | 105 |
| 3653 (YRRGVRR) [compound 3653] | 145 |
| 3654 (NRRGVRR) [compound 3654] | 109 |
| 3655 (QRRGVRR) [compound 3655] | 101 |
| 3656 (KRRGVRR) [compound 3656] | 169 |
| 3657 (RRRGVRR) [compound 3657] | 185 |
| 3658 (HRRGVRR) [compound 3658] | 160 |
| 3659 (DRRGVRR) [compound 3659] | 159 |
| 3660 (ERRGVRR) [compound 3660] | 43 |

| Substance | Binding affinity, values relative to the RRGVRR sequence |
| --- | --- |
| 3661 (RRGVRRG) [compound 3661] | 105 |
| 3662 (RRGVRRA) [compound 3662] | 118 |
| 3663 (RRGVRRV) [compound 3663] | 149 |
| 3664 (RRGVRRC) [compound 3664] | 131 |
| 3665 (RRGVRRP) [compound 3665] | 142 |
| 3666 (RRGVRRL) [compound 3666] | 146 |
| 3667 (RRGVRRI) [compound 3667] | 138 |
| 3668 (RRGVRRM) [compound 3668] | 127 |
| 3669 (RRGVRRW) [compound 3669] | 134 |
| 3670 (RRGVRRF) [compound 3670] | 137 |
| 3671 (RRGVRRS) [compound 3671] | 118 |
| 3672 (RRGVRRT) [compound 3672] | 113 |
| 3673 (RRGVRRY) [compound 3673] | 101 |
| 3674 (RRGVRRN) [compound 3674] | 105 |
| 3675 (RRGVRRQ) [compound 3675] | 105 |
| 3676 (RRGVRRK) [compound 3676] | 171 |
| 3677 (RRGVRRR) [compound 3677] | 188 |
| 3678 (RRGVRRH) [compound 3678] | 154 |
| 3679 (RRGVRRD) [compound 3679] | 61 |
| 3680 (RRGVRRE) [compound 3680] | 33 |

Same assay, conditions: SPR; XRRQRR-6mer and RRQRRX-6mer

| Substance | Binding affinity, relative value to the RRQRR sequence |
| --- | --- |
| 3601 (GRRQRR) [compound 3601] | 132 |
| 3602 (ARRQRR) [compound 3602] | 129 |
| 3603 (VRRQRR) [compound 3603] | 135 |
| 3604 (CRRQRR) [compound 3604] | 123 |
| 3605 (PRRQRR) [compound 3605] | 133 |
| 3606 (LRRQRR) [compound 3606] | 144 |
| 3607 (IRRQRR) [compound 3607] | 121 |
| 3608 (MRRQRR) [compound 3608] | 119 |
| 3609 (WRRQRR) [compound 3609] | 138 |
| 3610 (FRRQRR) [compound 3610] | 143 |
| 3611 (SRRQRR) [compound 3611] | 121 |
| 3612 (TRRQRR) [compound 3612] | 103 |
| 3613 (YRRQRR) [compound 3613] | 130 |
| 3614 (NRRQRR) [compound 3614] | 113 |
| 3615 (QRRQRR) [compound 3615] | 105 |
| 3616 (KRRQRR) [compound 3616] | 173 |
| 3617 (RRRQRR) [compound 3617] | 189 |
| 3618 (HRRQRR) [compound 3618] | 164 |
| 3619 (DRRQRR) [compound 3619] | 163 |
| 3620 (ERRQRR) [compound 3620] | 147 |

| Substance | Binding affinity, relative value to the RRQRR sequence |
| --- | --- |
| 3621 (RRQRRG) [compound 3621] | 109 |
| 3622 (RRQRRA) [compound 3622] | 113 |
| 3623 (RRQRRV) [compound 3623] | 120 |
| 3624 (RRQRRC) [compound 3624] | 126 |
| 3625 (RRQRRP) [compound 3625] | 137 |
| 3626 (RRQRRL) [compound 3626] | 141 |
| 3627 (RRQRRI) [compound 3627] | 133 |
| 3628 (RRQRRM) [compound 3628] | 122 |
| 3629 (RRQRRW) [compound 3629] | 129 |
| 3630 (RRQRRF) [compound 3630] | 132 |
| 3631 (RRQRRS) [compound 3631] | 113 |
| 3632 (RRQRRT) [compound 3632] | 117 |
| 3633 (RRQRRY) [compound 3633] | 105 |
| 3634 (RRQRRN) [compound 3634] | 109 |
| 3635 (RRQRRQ) [compound 3635] | 101 |
| 3636 (RRQRRK) [compound 3636] | 175 |
| 3637 (RRQRRR) [compound 3637] | 192 |
| 3638 (RRQRRH) [compound 3638] | 158 |
| 3639 (RRQRRD) [compound 3639] | 65 |
| 3640 (RRQRRE) [compound 3640] | 37 |

What follows are substances tested against T1, Acetylcholine receptor-overexpressing TE671 cells (Homo sapiens, UniProt P02708) (assay: Calcium imaging (Fura-2-AM) of nicotine response, acetylcholine receptor inhibition). Details: TE671 cells, nicotine 400 uM, calcium imaging.
T1 construct: endogenous in cells; host or cells: TE671 cells
T1 sequence (P07510 23-517): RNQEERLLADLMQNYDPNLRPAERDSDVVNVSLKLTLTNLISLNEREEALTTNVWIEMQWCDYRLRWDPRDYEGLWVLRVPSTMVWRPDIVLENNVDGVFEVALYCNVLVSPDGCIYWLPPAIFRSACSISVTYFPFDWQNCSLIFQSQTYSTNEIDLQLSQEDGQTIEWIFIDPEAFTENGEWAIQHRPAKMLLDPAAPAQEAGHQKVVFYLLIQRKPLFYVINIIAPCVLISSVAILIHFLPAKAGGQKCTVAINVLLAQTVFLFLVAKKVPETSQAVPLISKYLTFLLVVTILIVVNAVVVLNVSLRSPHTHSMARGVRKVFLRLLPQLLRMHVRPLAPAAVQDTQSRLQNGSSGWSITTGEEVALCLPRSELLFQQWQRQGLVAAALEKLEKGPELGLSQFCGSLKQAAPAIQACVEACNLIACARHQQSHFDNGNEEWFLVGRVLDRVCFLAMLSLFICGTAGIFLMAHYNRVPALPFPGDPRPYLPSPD
T1 sequence (P11230 24-501, further chain): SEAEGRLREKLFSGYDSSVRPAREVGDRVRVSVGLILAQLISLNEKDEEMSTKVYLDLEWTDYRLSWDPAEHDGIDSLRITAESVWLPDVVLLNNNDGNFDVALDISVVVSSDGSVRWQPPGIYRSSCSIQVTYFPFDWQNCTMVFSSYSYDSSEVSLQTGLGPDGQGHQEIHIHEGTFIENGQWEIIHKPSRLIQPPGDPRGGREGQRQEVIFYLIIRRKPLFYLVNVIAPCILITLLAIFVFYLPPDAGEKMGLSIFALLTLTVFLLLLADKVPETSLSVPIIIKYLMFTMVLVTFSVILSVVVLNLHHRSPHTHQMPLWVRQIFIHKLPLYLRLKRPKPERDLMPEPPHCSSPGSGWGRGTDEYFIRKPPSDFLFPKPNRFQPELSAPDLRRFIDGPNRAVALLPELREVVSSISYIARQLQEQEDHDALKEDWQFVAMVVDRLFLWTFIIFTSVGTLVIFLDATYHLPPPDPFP
T1 sequence (Q07001 22-517, further chain): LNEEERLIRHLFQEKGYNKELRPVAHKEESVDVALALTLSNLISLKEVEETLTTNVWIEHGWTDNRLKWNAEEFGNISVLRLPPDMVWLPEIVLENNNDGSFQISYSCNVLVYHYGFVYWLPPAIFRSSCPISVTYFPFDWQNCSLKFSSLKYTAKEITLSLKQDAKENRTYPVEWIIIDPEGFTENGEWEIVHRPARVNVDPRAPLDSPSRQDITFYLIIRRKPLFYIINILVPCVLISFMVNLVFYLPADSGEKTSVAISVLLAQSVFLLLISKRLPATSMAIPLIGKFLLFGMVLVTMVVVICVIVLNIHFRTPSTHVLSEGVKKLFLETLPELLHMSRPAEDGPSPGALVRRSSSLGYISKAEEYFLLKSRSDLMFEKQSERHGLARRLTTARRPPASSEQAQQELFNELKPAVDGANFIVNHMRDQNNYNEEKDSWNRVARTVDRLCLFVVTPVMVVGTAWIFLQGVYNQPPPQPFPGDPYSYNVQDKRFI
T1 sequence (P02708 21-457): as the sequence (P02708 21-457) above
Type: cell-based
Experimental: Acetylcholine receptor-overexpressing TE671 cells were cultured at 37° C. in DMEM medium supplemented with 10% FBS and 1% P/S under 5% CO2. After the TE671 cells were sufficiently grown for 4 days, the cells were detached using trypsin and the cell culture was plated in an amount of 1 ml at a density of 2×10^4 cells/well into 12-well cell culture plate with an 18 mm cover-slip lined therein, and cultured for 4 days.
The cover-slip on which the cells had grown was transferred to a fresh 12-well cell culture plate, and 997 μl of HBSS buffer and 3 μl of Fura-2-AM were added and gently mixed, followed by incubation at 37° C., 5% CO2 for 15 minutes. After incubation, the remaining Fura-2-AM was removed by washing 3-4 times with 1 ml of HBSS buffer, and an additional 1 ml was added. The cover-slip with the grown cells was placed in a chamber, and 500 μl of HBSS buffer was dispensed. The final concentration of nicotine was adjusted to 400 µM to observe the calcium imaging reaction. Then, while keeping the nicotine concentration fixed, the concentration of the sample was adjusted to find the inhibiting concentration.
The inhibitory ability of the Palmitate-6mer-1-43 and Palmitate-5mer-73 peptides on the acetylcholine receptor was examined in the same manner as in Example 6. Additionally, the inhibitory ability (IC50) of the optimized short peptides and the palmitate-modified peptides according to the present disclosure against acetylcholine receptor was compared with Synake and is depicted in FIG. 16.

| Substance | concentration at which acetylcholine receptors were inhibited [µM] |
| --- | --- |
| KWRQKR [6mer-2-233] | 10 |
